Results on ten molecules are retold here after US20170227547A1 (Hoffmann-La Roche, published 2017).

Assay [1] deals with human neonatal Fc receptor (FcRn), non-covalent complex with beta-2-microglobulin (human) (UniProt P55899). Put plainly: FcRn affinity column (Example 2), Fc-region after IdeS cleavage.
The target is the same in assay [2]. Put plainly: FcRn affinity column, run of the Bevacizumab comparison.
The target of assay [3] is T1, human IL-12 (human, UniProt P29459 23-219; P29460 23-328).
T1 construct: also called interleukin 12
T1 sequence (looked up) 1: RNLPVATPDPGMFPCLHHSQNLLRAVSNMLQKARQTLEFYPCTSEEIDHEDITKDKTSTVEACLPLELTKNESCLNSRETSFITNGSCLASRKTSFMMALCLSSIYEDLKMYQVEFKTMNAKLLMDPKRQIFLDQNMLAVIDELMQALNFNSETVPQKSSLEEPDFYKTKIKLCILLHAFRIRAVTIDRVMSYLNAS
T1 sequence (looked up) 2: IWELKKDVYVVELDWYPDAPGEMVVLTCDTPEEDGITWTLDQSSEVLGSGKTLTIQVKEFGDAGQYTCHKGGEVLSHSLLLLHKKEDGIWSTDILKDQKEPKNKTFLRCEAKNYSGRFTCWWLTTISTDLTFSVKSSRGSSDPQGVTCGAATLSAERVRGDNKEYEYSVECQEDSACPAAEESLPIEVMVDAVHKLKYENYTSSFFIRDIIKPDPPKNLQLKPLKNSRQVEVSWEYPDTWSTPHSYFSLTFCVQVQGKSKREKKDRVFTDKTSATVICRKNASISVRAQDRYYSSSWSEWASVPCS
Put plainly: SPR, IL-12.

Assay [4] deals with human neonatal Fc receptor (FcRn), non-covalent complex with beta-2-microglobulin (human) (UniProt P55899). The assay can be described thus: FcRn affinity chromatography, pH gradient 5.5-8.8, 140 mM NaCl (Example 2).
The target is the same in assay [5]. Put plainly: SPR, huFcRn immobilised, pH 6.0, steady state affinity normalised to Ustekinumab. In general terms: Surface plasmon resonance follows binding to a sensor surface in real time, without labels.
Assay [6] addresses T1, human IL-12. The assay can be described thus: IL-12 ELISA, concentration calculated from the fit of the Briakinumab calibration curve.
Assay [7] addresses human neonatal Fc receptor (FcRn), non-covalent complex with beta-2-microglobulin (human) (UniProt P55899). The assay can be described thus: SPR, FcRn, buffer pH 6.0.
Assay [8] has the same target. The assay can be described thus: SPR, FcRn, buffer pH 6.4.
For assay [9] the target is unchanged. Put plainly: SPR, FcRn, buffer pH 6.6.
Assay [10] shares this target. Put plainly: SPR, FcRn, buffer pH 6.8.
Assay [11] shares this target. The assay can be described thus: SPR, FcRn, buffer pH 7.0.
Assay [12] shares this target. The assay can be described thus: FcRn affinity column (Example 2).
The target is the same in assay [13]. Put plainly: FcRn affinity chromatography, pH gradient (Example 2), pH measured offline; FcRn affinity column, Example 2; elution pH at 93.7 min.
The target is the same in assay [14]. Put plainly: SPR, huFcRn immobilised, pH 6.0, steady state affinity normalised to Ustekinumab; SPR steady state, pH 6.0, KD relative to Ustekinumab = 1.
Assay [15] has the same target. The assay can be described thus: FcRn affinity column, Example 3 method, elution buffer 20 mM Tris/HCl, 400 mM NaCl, pH 8.8; FcRn affinity column, Example 3, high salt 400 mM NaCl.
Assay [16] has the same target. Put plainly: FcRn affinity chromatography, pH gradient 5.5-8.8, 140 mM NaCl (Example 2); FcRn affinity column, Example 2, 140 mM NaCl, pH gradient; complete antibody.
The target is the same in assay [17]. Put plainly: FcRn affinity chromatography, pH gradient (Example 2), pH measured offline.
The target is the same in assay [18]. Put plainly: SPR, huFcRn immobilised, pH 6.0, steady state affinity normalised to Ustekinumab; SPR steady state, pH 6.0; the reference, set to 1.
For assay [19] the target is unchanged. Put plainly: FcRn affinity chromatography, pH gradient (Example 2), pH measured offline; FcRn affinity column, Example 2; elution pH at 84.3 min.
For assay [20], the target named is T1, human IL-12. The assay can be described thus: IL-12 ELISA, absorbance against antibody concentration.

What is called Kd is the concentration at which binding is half-saturated. A lower Kd goes with higher affinity. Usually koff stands for the rate constant with which the complex falls apart. Read a high koff as fast dissociation. Usually kon stands for the rate constant with which the complex forms. A higher kon goes with fast association.

human neonatal Fc receptor (FcRn), non-covalent complex with beta-2-microglobulin (human), sequence (P55899 other isoform, or with tags, fused parts or gaps limits assumed, chain 1 of 2): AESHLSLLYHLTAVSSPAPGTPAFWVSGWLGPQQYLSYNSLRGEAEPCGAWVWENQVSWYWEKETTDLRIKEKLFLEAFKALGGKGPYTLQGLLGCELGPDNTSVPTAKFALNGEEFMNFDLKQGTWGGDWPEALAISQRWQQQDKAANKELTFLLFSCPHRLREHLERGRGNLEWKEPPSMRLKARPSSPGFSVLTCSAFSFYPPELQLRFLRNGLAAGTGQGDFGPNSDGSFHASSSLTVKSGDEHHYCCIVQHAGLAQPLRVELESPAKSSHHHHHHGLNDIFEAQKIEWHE
human neonatal Fc receptor (FcRn), non-covalent complex with beta-2-microglobulin (human), sequence (b2m, as listed by the source limits assumed, chain 2 of 2): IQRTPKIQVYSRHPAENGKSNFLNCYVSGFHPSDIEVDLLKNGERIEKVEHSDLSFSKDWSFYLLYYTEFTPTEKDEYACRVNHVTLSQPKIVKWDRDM

IdeS-cleaved Fc-region of Ustekinumab returned a FcRn column retention time in [1] of 85.2 min.

For the molecule IdeS-cleaved Fc-region of Briakinumab, the FcRn column retention time in [1] turned out to be 85.7 min.

In the case of Bevacizumab-wild-type (antibody), in assay [2], the FcRn column retention time amounted to 84.7 min.

B1: mAb 2 (antibody, V domains shown)
VH: QVQLVESGGGVVQPGRSLRLSCAASGFTFSSYGMHWVRQAPGKGLEWVAFIRYDGSNKYYADSVKGRFTISRDNSKNTLYLQMNSLRAEDTAVYYCKTHGSHDNWGQGTMVTVSS
VL: QSVLTQPPSVSGAPGQRVTISCSGSRSNIGSNTVKWYQQLPGTAPKLLIYYNDQRPSGVPDRFSGSKSGTSASLAITGLQAEDEADYYCQSYDRYTHPALLFGTGTKVTVLG
notes: Fv domain of Briakinumab on the Ustekinumab constant domains (IgG1)
In assay [3], B1 registered a dissociation constant Kd of 0.25 nM, a koff of 0.0003 s⁻¹ and a kon of 1.2e+06 M⁻¹ s⁻¹. Also, in [4], the FcRn column retention time was 93 min. Further, in [5], the rel. KD (Ustekinumab = 1) was 0.3. Moreover, the “window of IL-12 binding relative to Briakinumab (Briakinumab=100%)” value in [6] was at most 20%.

B2: Briakinumab (antibody, V domains shown)
VH: QVQLVESGGGVVQPGRSLRLSCAASGFTFSSYGMHWVRQAPGKGLEWVAFIRYDGSNKYYADSVKGRFTISRDNSKNTLYLQMNSLRAEDTAVYYCKTHGSHDNWGQGTMVTVSS
VL: QSVLTQPPSVSGAPGQRVTISCSGSRSNIGSNTVKWYQQLPGTAPKLLIYYNDQRPSGVPDRFSGSKSGTSASLAITGLQAEDEADYYCQSYDRYTHPALLFGTGTKVTVLG
notes: Fully human IgG1; also called ABT 874; J 695
For the molecule B2, the Kd in assay [3] is 0.07 nM; in [7], 90 nM; in assay [8], 100 nM; in assay [9], 360 nM; in [10] it was 600 nM; in assay [11] it was 4200 nM. This molecule yielded a koff in assay [3] of 6e-05 s⁻¹. Moreover, in assay [3], the on-rate (kon) was found to be 800000 M⁻¹ s⁻¹. Further, the FcRn column retention time was 93.7 min in assay [12], 91.6 min in assay [2], 83.1 min in assay [15] and 93.7 min in [16]. The rel. KD (Ustekinumab = 1) in [5] and in [14] was 0.2 each time. In addition, in assay [6], the “window of IL-12 binding relative to Briakinumab (Briakinumab=100%)” value was at most 20%. The molecule further displayed a FcRn column elution pH in assay [13] of 7.9 pH.

B3: mAb 8 (antibody, IgG1, V domains shown)
VH: QVQLVESGGGVVQPGASLALSCAASGFTFSSYGMHWVRQAPGKGLEWVAFIRYDGSNAYYADSVAGRFTISRDNSKNTLYLQMNSLAAEDTAVYYCKTHGSHDNWGQGTMVTVSS
VL: QSVLTQPPSVSGAPGQRVTISCSGSRSNIGSNTVKWYQQLPGTAPKLLIYYNDQRPSGVPDRFSGSKSGTSASLAITGLQAEDEADYYCQSYDRYTHPALLFGTGTKVTVL
notes: Briakinumab variant (IgG1) with five positively charged heavy chain residues mutated; also called Briakinumab with HC mutations R16A, R19A, K57A, K64A, R83A
B3: in [3], the Kd worked out at 0.07 nM, the koff was determined as 9.1e-05 s⁻¹ and the kon worked out at 1.2e+06 M⁻¹ s⁻¹. The FcRn column retention time in assay [12] amounted to 90.1 min. For the same molecule, the FcRn column retention time in [4] amounted to 90.1 min. Also, the FcRn column elution pH in assay [17] was determined as 7.7 pH. In assay [5], this molecule returned a rel. KD (Ustekinumab = 1) of 0.4.

B4: mAb 9 (antibody, IgG1, V domains shown)
VH: QVQLVESGGGVVQPGRSLRLSCAASGFTFSSYGMHWVRQAPGKGLEWVAFIRYDGSNKYYADSVKGRFTISRDNSKNTLYLQMNSLRAEDTAVYYCKTHGSHDNWGQGTMVTVSS
VL: QSVLTQPPSVSGAPGQRVTISCSGSASNIGSNTVKWYQQLPGTAPKLLIYYNDQAPSGVPDRFSGSKSGTSASLAITGLQAEDEADYYCQSYDAYTHPALLFGTGTKVTVL
notes: Briakinumab variant (IgG1) with three positively charged residues of the light chain CDRs mutated to alanine; also called Briakinumab with LC mutations R27A, R55A, R94A
In assay [3], B4 showed a dissociation constant (Kd) of 0.01 nM, a koff of 0.00013 s⁻¹ and a kon of 8.8e+06 M⁻¹ s⁻¹. In addition, the FcRn column retention time in [12] is 86.2 min. For the same molecule, the FcRn column retention time in assay [4] was determined as 86.2 min. This molecule came in with a FcRn column elution pH in assay [17] of 7.5 pH. Further, in assay [5], the rel. KD (Ustekinumab = 1) worked out at 0.4.

B5: Ustekinumab (antibody, V domains shown)
VH: EVQLVQSGAEVKKPGESLKISCKGSGYSFTTYWLGWVRQMPGKGLDWIGIMSPVDSDIRYSPSFQGQVTMSVDKSITTAYLQWNSLKASDTAMYYCARRRPGQGYFDFWGQGTLVTVSS
VL: DIQMTQSPSSLSASVGDRVTITCRASQGISSWLAWYQQKPEKAPKSLIYAASSLQSGVPSRFSGSGSGTDFTLTISSLQPEDFATYYCQQYNIYPYTFGQGTKLEIK
notes: Fully human IgG1; also called CNTO 1275; Stelara
For B5, the Kd in [3] is 0.2 nM; in [7], 390 nM; in assay [8], 1000 nM; in assay [9], 3100 nM. Moreover, the off-rate constant (koff) in assay [3] came out at 0.00018 s⁻¹. Moreover, in assay [3], the kon was determined as 900000 M⁻¹ s⁻¹. The FcRn column retention time in assay [12] was determined as 84.3 min; in [2], 83.6 min; in assay [15], 80.4 min; in [16] it was 84.3 min. The rel. KD (Ustekinumab = 1) in [5] and in assay [18] was 1 in each case. In addition, in [6], the “window of IL-12 binding relative to Briakinumab (Briakinumab=100%)” value is at most 20%. In [19], this molecule came in with a FcRn column elution pH of 7.4 pH.

B6: mAb 3 (antibody, V domains shown)
VH: EVQLVQSGAEVKKPGESLKISCKGSGYSFTTYWLGWVRQMPGKGLDWIGIMSPVDSDIRYSPSFQGQVTMSVDKSITTAYLQWNSLKASDTAMYYCARRRPGQGYFDFWGQGTLVTVSS
VL: QSVLTQPPSVSGAPGQRVTISCSGSRSNIGSNTVKWYQQLPGTAPKLLIYYNDQRPSGVPDRFSGSKSGTSASLAITGLQAEDEADYYCQSYDRYTHPALLFGTGTKVTVLG
notes: Heavy chains of Ustekinumab and light chains of Briakinumab (whole chains)
In assay [4], B6 gave a FcRn column retention time of 92.4 min. Besides, the binding result in assay [20] is “no binding (tested: 12 ng/mL)”. In addition, the rel. KD (Ustekinumab = 1) in assay [5] stood at 0.2.

B7: mAb 1 (antibody, V domains shown)
VH: EVQLVQSGAEVKKPGESLKISCKGSGYSFTTYWLGWVRQMPGKGLDWIGIMSPVDSDIRYSPSFQGQVTMSVDKSITTAYLQWNSLKASDTAMYYCARRRPGQGYFDFWGQGTLVTVSS
VL: DIQMTQSPSSLSASVGDRVTITCRASQGISSWLAWYQQKPEKAPKSLIYAASSLQSGVPSRFSGSGSGTDFTLTISSLQPEDFATYYCQQYNIYPYTFGQGTKLEIK
notes: Fv domain of Ustekinumab on the constant parts of Briakinumab (IgG1)
In the case of B7, in assay [3], the equilibrium dissociation constant (Kd) was 0.24 nM, the koff was found to be 0.00041 s⁻¹ and the kon was found to be 1.7e+06 M⁻¹ s⁻¹. The same molecule had a FcRn column retention time in assay [4] of 84.3 min. Besides, the rel. KD (Ustekinumab = 1) in [5] worked out at 1.
